Data taken from the supplement of paper PMC9170038.

System: K4 kissing-loop RNA reporter
Test: apparent KD of K4 kissing-loop reporter; higher = weaker reporter binding
Conditions: Eterna round: R107
Protocol: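 RNA-MaP round R107: designed RNA switches with theophylline, tryptophan, arginine or FMN aptamers are transcribed on-chip within common flanks. They are titrated with a labelled K4 kissing-loop RNA reporter in RNA-MaP buffer (100 mM Tris pH 7.5, 80 mM KCl, 4 mM MgCl2), without ligand or with the indicated ligand. Median apparent KD per design.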

[1] = input ligand: theophylline 20 uM
[2] = input ligand: tryptophan 2.4 mM
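Also: bound reporter read as fluorescence of individual clusters on recovered sequencing chips by microscopy, with normalized cluster intensities fitted with a binding model.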

| Sequence | apparent KD of K4 kissing-loop reporter (input ligand: FMN 200 uM) [µM] | apparent KD of K4 kissing-loop reporter (input ligand: arginine 13.2 mM) [µM] | apparent KD of K4 kissing-loop reporter (input ligand: none) [µM] | apparent KD of K4 kissing-loop reporter [1] [µM] | apparent KD of K4 kissing-loop reporter [2] [µM] |
| --- | --- | --- | --- | --- | --- |
| AAAAUAAACCAGUGAUGUUGGUGUCUAGAUACCAGCGAUAAUAAUCGCCCUUGGCAGCUACGGACGUACAAAAUAAGUACGUCCU [MatMod 10 - Jieux - Same State - Theophylline A] | 0.543 | 0.375 | 0.454 | 0.485 | 0.46 |
| GCUCGGGAGUGAUGUUCCAAGUGGUGUUAACGAGGACCGGUACGGCCGCCACUCGAUACGGCCGGACCGUAGGAUAAACUGGAGC [Same State - Tryptophan A (Freestyle 12)] | 0.149 | 0.11 | 0.125 | 0.185 | 0.144 |
| AGAGAUAUAUGAGGAUAUGGGAUAGUUAAUGAGUUAGUUUUAGUGUUGUUUGGUUAGUGAUGUUAUUUAGAAGGCGUGAGUGAUG [rxxvgmullin] | 0.106 | 0.0758 | 0.0817 | 0.109 | 0.0711 |
| CCGUGGAGUGAUGUUCCACGUACUACGGAUACCAGCUUUGCCAAAGGCCCUUGGCAGCCGCACGGCUCAGUGAUGUUGGGUCGCG [Same State Theophylline A G10] | 0.167 | 0.153 | 0.172 | 0.156 | 0.148 |
| CGCAGUGAUGUUGCGAGUAGCUACAGGGAAGGAGCGUGCUAGAGCACAGGUAGGUCGCCCACGCAGUGAUGUUGUGUCAAAGGGU [Exclusion Arginine A GF 11] | 0.167 | 0.168 | 0.165 | 0.179 | 0.146 |
| AGUACAGACACGGCCGCCACUCAGAAGAAGAUAGUAGUGAUGUUACUGAUGAUGAGAAUAAUAAAGAGGACCGGGUGUUGUGCAA [#09 K4 Tryptophan B Same State] | 0.107 | 0.1 | 0.125 | 0.113 | 0.0715 |
| UUUAUUAAGACGGCCGCCACUGAAUUAGAGUGAUGUUCUAUAAUUUCUAAAUUAAAUUUAUUCAACAGGACCGGGUCAAUUAUUA [JR_SSTryptoB_Sub011] | 0.384 | 0.364 | 0.382 | 0.392 | 0.314 |
| GAGUCGGCACAAGGAUAUAGGUGUAGUGAUGUUAUGUCUCCUUGACUCACUCGUUACCCUCAACGUCUAGAAGGUGUGAAUGCAG [theeternabot_exclusion_KL_FMN_B_46] | 0.328 | 0.24 | 0.29 | 0.229 | 0.251 |
| UGAUACCAGACUGAUACCAGCAAGUGAUGUUUGUUGAUCUAUGCAGUCAAAGACUGCUCUUGCCCUUGGCAGCAGUCUGGUAUCU [TheoBX 28 #SwitchBubble #StaticStem] | 0.762 | 0.64 | 1.04 | 0.409 | 0.777 |
| UGAUACCAGACGGCCGCCACUCCUGCAGUCAAAGACUGCUAAAAGGAAAUCGUCCAGUGAUGUUGGAGGACCGGGUCUGGUAUCU [TrypBX 14 #SwitchBubble #Palindromic #StaticStem] | 0.647 | 0.738 | 1.15 | 0.685 | 0.372 |
| UGGCGGCAAGGGUUAUUGGAAAGUAUUCGUCGAGGACCGGUACGGCCGCCACUCGAACACCAGUGAUGUUGGUCUGGUUUAAGCU [Exclusion Tryptophan A GF 22] | 0.447 | 0.69 | 0.54 | 0.636 | 0.321 |
| UUCUGCAUCUCGGCCGCCACUCACUAGUGAUGUUAGUAAGGAGCGACUAGACAUGUCCCGUUAUUGAGGACCGGGAGAGGCUCUU [#13 K4 Tryptophan B Exclusion] | 0.208 | 0.162 | 0.192 | 0.162 | 0.14 |
| AGUUCUUGCCGAAGGAGCGAGGCAGAGUGAUGUUCUGCACGAGGUCGAAAGACCUCGCUGCCUCAGGUAGGUCGCGGCAUGAACA [Omei KL Arginine B Exc A v2] | 0.897 | 0.504 | 1.13 | 0.614 | 1.3 |
| CCUUUCAGUUACGAUACCAGUCUAAUAUAUUUGAUCAAUACCCUCGCCGAGUGAUGUUCGGACCCUUGGCAGCGUCUGGGACAGG [gbbymullin] | 0.526 | 0.428 | 0.525 | 0.418 | 0.337 |
| AAAACCAAAAGCGAUACCAGCGCGGAGUGAUGUUCCGAGGAUCGGAGUGAUGUUCCGAAGCGCCCUUGGCAGCGCAAAAGCGCAA [Exclusion Theophylline B GF 7] | 0.207 | 0.139 | 0.171 | 0.196 | 0.164 |
| GGAUAGGACAGAGGAUAUCCAGUGAUGUUGGAGAAUUCUCCUUCAACAUGUCACAAAAGUGGCAUGGGAGAAGGCUGUCCUAUCG [Mod of Eli's FmnBX 29 v2] | 0.388 | 0.12 | 0.122 | 0.0997 | 0.108 |
| AGUACAACUGCGGCCGCCACUCAACGCAGAUCAAAGAUCUGCAUUCACUCAGUGAUGUUGAGUGAGAGGACCGGGCAGUUGUACA [Omei KL Tryp B SS B v3] | 0.855 | 0.718 | 0.742 | 0.645 | 0.166 |
| GCGGCGGGCCAAGGAUAUAUAUUGGAGUGAUGUUGUUCAUUUAUUUGAGCUAGUGAUGUUGGUCAAAUAGAAGGUGGCCCGCCGC [whbob_Ex_FMNB__2th217] | 0.0565 | 0.0346 | 0.0593 | 0.0448 | 0.062 |
| AAGGCCGCGCGGUGAUGUUUCAUCGCCGCCCGAGGACCGGUACGGCCGCCACUCGGAUAUAUCGCAGUGAUGUUGCUCUAUAUCA [Exclusion - Tryptophan A] | 0.16 | 0.151 | 0.155 | 0.167 | 0.203 |
| GUAUCGCUAGGAGGAUAUUUCAAAUAAUAAAUAAAUGGAUAUUCGGAGUGAUGUUCCGAUUUACGGAAAGAAGGCCUAGUGAUAC [FMN B 2] | 0.135 | 0.143 | 0.157 | 0.137 | 0.15 |
| AAUAAUAAUAAAUAUAGAUUGAUGAGGAAACGAGGACCGGUACGGCCGCCACUCGAGUGAUGUUCGAGAACCUCAUCAAUCAUAA [AK4.7 Exc Tryptophan A] | 0.171 | 0.132 | 0.166 | 0.154 | 0.382 |

| Sequence | apparent KD of K4 kissing-loop reporter (input ligand: FMN 200 uM) [µM] | apparent KD of K4 kissing-loop reporter (input ligand: arginine 13.2 mM) [µM] | apparent KD of K4 kissing-loop reporter (input ligand: none) [µM] | apparent KD of K4 kissing-loop reporter [1] [µM] | apparent KD of K4 kissing-loop reporter [2] [µM] |
| --- | --- | --- | --- | --- | --- |
| GGAGGUUGGUGCGAUACCAGACCUGCAGUGAUGUUGCGCCAAAGUGAGUGAUGUUCACCGGUCCCUUGGCAGCGCGUCCCUUUAG [Same State Theophylline B GF 15] | 0.848 | 0.729 | 1.19 | 0.707 | 0.86 |
| AUUUUGGUUUAGAGUGAUGUUCCUUGUAUUCGAGGACCGGUACGGCCGCCACUCGGGUAGAAAAGAAAAGAAAUGUUUGAUUUUU [BDazzled - #9 SS Tryptophan A] | 0.282 | 0.102 | 0.21 | 0.223 | 0.29 |
| AUUUGUUACCUUAUAGGAGUGAUGUUCUUGCGAGGACCGGUACGGCCGCCACUCGCGCUGGCGCCUAGCCUCGGACCGUUAAUUC [theeternabot_exclusion_KL_Trp_A_25] | 0.582 | 0.325 | 0.635 | 0.497 | 0.431 |
| UGAUACCAGACGGCCGCCACUCCUGCAGUCAAAGACUGCUAAAGGAAAUUCGUCCAGUGAUGUUGGAGGACCGGGUCUGGUAUCU [TrypBX 13 #SwitchBubble #Palindromic #StaticStem] | 1.1 | 0.753 | 1.07 | 0.81 | 0.48 |
| AAGCCAGUGAUGUUGGCAAAAUAAACUGAAGGAGCGCGUGAAAACGCAGGUAGGUCGCAGAACCUUGCCAACUAACACGAAAGUG [Ex Arginine A K4 19] | 0.268 | 0.246 | 0.305 | 0.387 | 0.287 |
| GGAGUUACCUGGGAUACCAGCCGGAGGCCCAGAGCUCGGAGUGAUGUUCUGGGAUGUUUCGGCCCUUGGCAGCUCUGGGUCUCCC [#2 Exclusion - Theophylline B Attempt #6 (HarryS)] | 1.52 | 0.512 | 0.535 | 0.505 | 0.521 |
| UUGACCAAAUUCCGGUGAUCAUCGCCGCCGCGAGGACCGGUACGGCCGCCACUCGUCCCUAUGCUCGGAGUAGUGAUGUUAUUCA [theeternabot_sameState_KL_Trp_A_43] | 0.557 | 0.197 | 0.529 | 0.28 | 0.574 |
| CCAUCGCUAUUCGAUACCAGUCAAGAGGUCUUUGGCCUCUUAAUGGAGUGAUGUUCCUUAGACCCUUGGCAGCGAAUAGUGAUGG [Theophylline B K4 13] | 0.266 | 0.127 | 0.237 | 0.34 | 0.124 |
| CCGGCCCGGCCGGAUACCAGUGCGCCGCUGUGAACUGCGGGCCCAGAGUGAUGUUCGGGACACCCUUGGCAGCCGCCUGGGUCGC [#2 Same State - Theophylline B Attempt #26 (HarryS)] | 0.358 | 0.38 | 0.444 | 0.325 | 0.341 |
| UUUUAUAACCGAAGGAGCGCGUGGGCGCAGUGAUGUUGCGCCCGACAUCACUUCAACUUAACGCAGGUAGGUCGCGGUUUUAAUA [Arginine B (Excl) V2] | 0.157 | 0.132 | 0.159 | 0.158 | 0.153 |
| UUGUUUGGUUGAGAGGUUGGGCGAGAUGAUACCAGUAUAUAAGAAUACCCUUGGCAGCAUAAGAAAGAUAUAGUGAUGUUGUAUA [SSTheophA.M] | 0.52 | 0.379 | 0.645 | 0.672 | 0.457 |
| GUUACGCAUGGAAGGAGCGCUCUCCGGUUGAUCGACACAGUGAUGUUGUGGUUCUACCGUAAGCAGGUAGGUCGCCAUGUGUAAC [Ex Arginine B K4 14] | 0.73 | 0.449 | 0.936 | 0.966 | 0.828 |
| AUACCUCUACGAGUGAUGUUUGUUGAGGAUACCAGCAUGUAUAGUUGCCCUUGGCAGCCUUGGCUCGUGCGCUCCCUCCGAACCG [theeternabot_exclusion_KL_Theo_A_30] | 0.296 | 0.24 | 0.291 | 0.277 | 0.247 |
| UGUACCGAGUCAGGAUAUCAACGACUGACAAAGUCGGUCGAAUAUCCAGUGAUGUUGGAAAAUAAAUGAGAAGGGACUUGGUACU [FmnBS 12 #SwitchBubble #StaticStem] | 0.137 | 0.361 | 0.36 | 0.341 | 0.344 |
| AUAUCUGUUCGAAAGAACGGAUCUUCGGAAGGAGCGCGUGAAAACGCAGGUAGGUCGCCGAAGUUAUUAGGUAGUGAUGUUACCU [Arginine A K4 7] | 0.129 | 0.0964 | 0.113 | 0.101 | 0.109 |
| GGUUUCUGAAGUGAUGUUUCAGGAUGACACAAGGAUAUAUAUGGCGAUAGAAGGUGUGCGUCGCAUGACGAACGACGUCAGCUUC [theeternabot_exclusion_KL_FMN_A_37] | 0.0948 | 0.0809 | 0.12 | 0.123 | 0.093 |
| AUACGUUUAAGUGAUACCAGACAUGUGAGUGAUGUUUACAUAUAUAUUUAAUAUUUAGCUGUCCCUUGGCAGCACAGUUUAUUUA [JR_ExcTheophyB_Sub001] | 0.35 | 0.374 | 0.441 | 0.399 | 0.308 |
| GGGAGUUAUUACGGCAGGGUCGAUACGGAUACCAGUAGGCGGCUCUACCCUUGGCAGCCGUAACAUGGUAGUGAUGUUAUCAGUC [theeternabot_exclusion_KL_Theo_A_24] | 0.527 | 0.42 | 0.518 | 0.468 | 0.405 |
| UGCGCUGUGUACUGAAAUGUCCUGCGGGAUACCAGAGUCUUUUUAUUCCCUUGGCAGCUUGAGUGAUGUUUGAUGCCGUUCUUGU [frrgmullin] | 0.786 | 0.423 | 0.71 | 0.738 | 0.47 |
| AAACAGCACUGGGAGUGAUGUUCUCAGUGACGAGGACCGGUACGGCCGCCACUCGCGAGAGAACUAGUCUAGACUUGACUGCAUA [Excl Tryptophan A V15] | 0.181 | 0.138 | 0.145 | 0.149 | 0.205 |
